Among the data in patent publication US20260347441 (published 2026) are binding result and Kd values, retold here.

The target of one test is polatuzumab vedotin (humanized). Briefly: SPR. In general terms: Surface plasmon resonance follows binding to a sensor surface in real time, without labels.
The target of the next test is human serum albumin (human, UniProt P02768). The test can be described thus: SPR.

Chain of polatuzumab vedotin (humanized) (VH, as listed by the source, chain 1 of 2): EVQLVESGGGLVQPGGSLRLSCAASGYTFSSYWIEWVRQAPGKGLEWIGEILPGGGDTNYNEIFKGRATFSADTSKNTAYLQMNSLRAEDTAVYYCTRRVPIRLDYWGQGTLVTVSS
Chain of polatuzumab vedotin (humanized) (VL, as listed by the source, chain 2 of 2): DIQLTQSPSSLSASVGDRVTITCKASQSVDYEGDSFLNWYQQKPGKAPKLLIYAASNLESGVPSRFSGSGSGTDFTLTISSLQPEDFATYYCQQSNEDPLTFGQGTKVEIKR

B1: ABC3315 (antibody, V domains shown)
VH: EVQLVESGGGLVKPGGSLKLSCAASGFTFSGYAMSWFRQAPEKRLEWVATISSGGSYTYYLDSVKGRFTISRDNSKNTLYLQMSSLRSEDTAVYYCLASLITTDYFEYWGQGTLVTVSS
VL: DIVMTQSPSSLSASVGDRVTITCRASQDVGTAVAWYQQKPGQSPKLLIYWASTRHTGVPDRFSGSGSGTDFTLTISGLQSEDEADYFCQQYSNYPYTFGGGTKLEIKR
modifications: peg12-biotin conjugated, immobilized on streptavidin; vc-MMAE conjugate (ADC)
As for B1, the binding result in the test with polatuzumab vedotin is on record as “no binding”.

B2: ABC3315-WEDD (antibody, V domains shown)
VH: EVQLVESGGGLVKPGGSLKLSCAASGFTFSGYAMSWFRQAPEKRLEWVATISSGGSYTYYLDSVKGRFTISRDNSKNTLYLQMSSLRSEDTAVYYCLASLITTDYFEYWGQGTLVTVSS
VL: DIVMTQSPSSLSASVGDRVTITCRASQDVGTAVAWYQQKPGQSPKLLIYWASTRHTGVPDRFSGSGSGTDFTLTISGLQSEDEADYFCQQYSNYPYTFGGGTKLEIKR
In general, Kd refers to the constant that tells how readily two partners part at equilibrium. Higher therefore signals a looser complex. B2 displayed a Kd with human serum albumin of 2.34 µM. This counts as single-digit micromolar.

B3: ABC3315-WE (antibody, V domains shown)
VH: EVQLVESGGGLVKPGGSLKLSCAASGFTFSGYAMSWFRQAPEKRLEWVATISSGGSYTYYLDSVKGRFTISRDNSKNTLYLQMSSLRSEDTAVYYCLASLITTDYFEYWGQGTLVTVSS
VL: DIVMTQSPSSLSASVGDRVTITCRASQDVGTAVAWYQQKPGQSPKLLIYWASTRHTGVPDRFSGSGSGTDFTLTISGLQSEDEADYFCQQYSNYPYTFGGGTKLEIKR
B3 had a Kd with human serum albumin of 10.5 µM.
